# Positions count from the first letter of the chain named.
# B1: hActRIIB-hFc (human ActRIIB ECD linked to human IgG1 Fc) (Fc fusion, not shown: a dimerising Fc or GST)
# chain: SGRGEAETRECIYYNANWELERTNQSGLERCEGEQDKRLHCYASWRNSSGTIELVKKGCWLDDFNCYDRQECVATEENPQVYFCCCEGNFCNERFTHLPEAGGPEVTYEPPPTAPTLLT
# B2: Ab-17G05 (antibody, V domains shown)
# VH: EVQLLESGGGLVQPGGSLRLSCAASGFTFSNYWMGWVRQAPGKGLEWVSYIRSSGGLTHYADSVKGRFTISRDNSKNTLYLQMNSLRAEDTATYYCAKGLYSFDYWGQGTLVTVSS
# VL: DIQMTQSPSSLSASVGDRVTITCRASQGVNNFLAWYQQKPGKAPRLLIYAASTLQSGVPSRFSGSGSGTDFTLSISNLQPEDFATYYCQQSYSTPRGFGQGTKVEIK
# notes: also called antibody 17G05; Ab-R17G05
# B3: Fab-17G01 (Fab, V domains shown)
# VH: B2 VH with W33Q, G35D, R52G, S53P, L57R, H59K, K98R
# VL: DIQMTQSPSSLSASVGDRVTITCRAGQSISNFLNWYQHTPGTGPKVLIYAASSLQSGVPSRFSGSGSGTEFTLTITNLQPEDFATYYCQQSYSTPFTFGPGTKVDIK
# notes: Soluble Fab from Dyax's Fab310 library; the Fab constant domains are not; also called sFab 17G01
# B4: Fab-17G05 (Fab, V domains shown)
# VH: B2 VH
# VL: B2 VL
# notes: the Fab constant domains are not; also called sFab 17G05; Fab-R17G05
# B5: Fab-17C09 (Fab, V domains shown)
# VH: EVQLLESGGGLVQPGGSLRLSCAASGFTFSQYNMTWVRQAPGKGLEWVSSIYSSGGVTPYADSVKGRFTISRDNSKNTLYLQMNSLRAEDTAVYYCARGRLLFDYWGQGTLVTVSS
# VL: DIQMTQSPSSLSASVGDRVTITCRASQSISNYLNWYQQRPGKPPKLLIYAASSLQSGVPSRFSGSGSGTDFSLSISILQPEDFATYYCQQGYTAPRSFGQGTKVEIK
# notes: Soluble Fab from Dyax's Fab310 library; the Fab constant domains are not; also called sFab 17C09
# B6: Fab-17A11 (Fab, V domains shown)
# VH: EVQLLESGGGLVQPGGSLRLSCAASGFTFSTYAMMWVRQAPGKGLEWVSRIYPSGGTTTYADSVKGRFTISRDNSKNTLYLQMNSLRAEDTAVYYCARGSAASSYWGQGTLVTVSS
# VL: DIQMTQSPSFLSASVGDRVTITCRASQGISNYLAWYQQKPGKAPKLLIYAASTLQSGVPSRFSGSGSGTEFTLTISSLQPEDIGTYYCQQLISYPFTFGPGTKVDIK
# notes: Soluble Fab from Dyax's Fab310 library; the Fab constant domains are not; also called sFab 17A11
# Tests used:
# activin A = target: T1, activin A (UniProt P08476 311-426); test: cell-based or functional assay
# T1 sequence (looked up): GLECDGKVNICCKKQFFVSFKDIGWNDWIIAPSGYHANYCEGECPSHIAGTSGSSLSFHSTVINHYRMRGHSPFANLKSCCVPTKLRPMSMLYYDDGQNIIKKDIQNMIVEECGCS
# hActRIIB-mFc [1] = target: T2, hActRIIB-mFc (human; mouse, UniProt Q13705 19-137); test: SPR (BIACORE), hActRIIB-mFc captured on anti-murine IgG2a Fc chip, antibody in solution, 25 C
# T2 construct: not shown: murine IgG2a Fc (captured by antibody against murine IgG2a Fc)
# T2 sequence: B1 chain
# Protocol: (§1) FIG. 2 depicts kinetic characterization of Ab-17G05 binding to hActRIIB-mFc as determined by BIACORE™-based analysis at 25° C. (A) or 37° C. (B). hActRIIB-mFc was captured on a chip with covalently immobilized antibody against murine IgG2a Fc and then exposed to Ab-17G05 at concentrations ranging from 0.0195 μg/ml to 5 μg/ml.
# (§2) BIACORE™-based analysis was used to characterize binding of Ab-17G05 to ActRIIB. For this analysis, Ab-17G05 was purified from COS-cell-conditioned media by one-step protein G chromatography.
# hActRIIB-mFc [2] = target: T2, hActRIIB-mFc; test: SPR (BIACORE), Ab-17G05 on hActRIIB-mFc compared with Fab-17G05 on hActRIIB-hFc
# Protocol: as §1, §2
# [3] = target: B1; test: cell-based or functional assay
# hActRIIB-mFc [4] = target: T2, hActRIIB-mFc; test: SPR (BIACORE), hActRIIB-mFc captured on anti-murine IgG2a Fc chip, antibody in solution, 37 C
# Protocol: FIG. […] (A) or 37° C. (B). hActRIIB-mFc was captured on a chip with covalently immobilized antibody against murine IgG2a Fc and then exposed to Ab-17G05 at concentrations ranging from 0.0195 μg/ml to 5 μg/ml.
# as §2
# [5] = target: B1; test: SPR (BIACORE) competition: biotinylated ActRIIB-Fc on streptavidin chip, sFab 40 ug/ml then GDF11 500 ng/ml; competitor GDF11
# Protocol: Affinity-purified sFabs were also screened in two SPR-based competition assays at Acceleron. The first assay evaluated the effect of sFab pretreatment on binding of GDF11 to immobilized ActRIIB-Fc. […] This signal was compared with a second signal (residual GDF11 binding) resulting from GDF11 binding to immobilized ActRIIB-Fc that had first been exposed to sFab (40 μg/ml).
# [6] = target: B1; test: SPR (BIACORE), human ActRIIB-hFc, Fab in solution, 37 C
# [7] = target: B1; test: SPR (BIACORE), human ActRIIB-hFc, Fab in solution, 25 C
# [8] = target: B1; test: SPR (BIACORE), hActRIIB-hFc captured on anti-human IgG1 Fc chip, Fab in solution, 25 C (values of Example 4 reprinted for comparison)
# Protocol: (§3) FIG. 1 depicts kinetic characterization of Fab-17G05 binding to hActRIIB-hFc as determined by BIACORE™-based analysis at 25° C. (A) or 37° C. (B). hActRIIB-hFc was captured on a chip with covalently immobilized antibody against human IgG1 Fc and then exposed to Fab-17G05 at concentrations ranging from 0.0195 μg/ml to 5 μg/ml. RU, response units.
# [9] = target: B1; test: SPR (BIACORE), hActRIIB-hFc captured on anti-human IgG1 Fc chip, Fab in solution, 37 C (values of Example 4 reprinted for comparison)
# Protocol: (§4) FIG. […] (A) or 37° C. (B). hActRIIB-hFc was captured on a chip with covalently immobilized antibody against human IgG1 Fc and then exposed to Fab-17G05 at concentrations ranging from 0.0195 μg/ml to 5 μg/ml. RU, response units.
# [10] = target: B1; test: SPR (BIACORE), hActRIIB-hFc captured on anti-human IgG1 Fc chip, Fab in solution, 37 C; 37 C
# Protocol: as §4
# [11] = target: B1; test: SPR (BIACORE), hActRIIB-hFc captured on anti-human IgG1 Fc chip, Fab in solution, 25 C (values of Example 4 reprinted for comparison); 25 C; Fab values reprinted for comparison with Ab-17G05
# Protocol: as §3
# [12] = target: B1; test: SPR (BIACORE), hActRIIB-hFc captured on anti-human IgG1 Fc chip, Fab in solution, 25 C
# Protocol: as §3
# [13] = target: B1; test: SPR (BIACORE), hActRIIB-hFc captured on anti-human IgG1 Fc chip, Fab in solution, 37 C
# Protocol: as §4
# [14] = target: B1; test: SPR (BIACORE), human ActRIIB-hFc, Fab in solution, 25 C; 25 C
binder,measurement,setting,value
B1,"IC50 of inhibition of activin A signaling, A204 reporter gene assay (activin A 5 ng/ml)",activin A,0.05 µg/mL
B2,Kd,hActRIIB-mFc [1],0.028 nM
same,koff,hActRIIB-mFc [1],2.7e-05 s⁻¹
same,kon,hActRIIB-mFc [1],970000 M⁻¹ s⁻¹
same,fold improvement in off-rate and KD against Fab-17G05,hActRIIB-mFc [2],≥ 20 fold
same,"IC50 of neutralization, A204 cell-based reporter gene assay (activin A 5 ng/ml plus ActRIIB-Fc 50 ng/ml)",[3],~0.04 nM
same,Kd,hActRIIB-mFc [4],0.092 nM
same,koff,hActRIIB-mFc [4],0.00014 s⁻¹
same,kon,hActRIIB-mFc [4],1.5e+06 M⁻¹ s⁻¹
B3,residual GDF11 binding,[5],< 50 % of Emax
same,Kd,[6],21 nM
same,koff,[6],0.012 s⁻¹
same,kon,[6],580000 M⁻¹ s⁻¹
same,Kd,[7],3.8 nM
same,koff,[7],0.0018 s⁻¹
same,kon,[7],460000 M⁻¹ s⁻¹
B4,Kd,[8],0.55 nM
same,koff,[8],0.00087 s⁻¹
same,Kd,[9],1.9 nM
same,koff,[9],0.0031 s⁻¹
same,kon,[9],2.6e+06 M⁻¹ s⁻¹
same,Kd,[10],1.9 nM
same,kon,[11],1.6e+06 M⁻¹ s⁻¹
same,Kd,[12],0.55 nM
same,koff,[12],0.00087 s⁻¹
same,kon,[12],1.6e+06 M⁻¹ s⁻¹
same,residual GDF11 binding,[5],< 50 % of Emax
same,"IC50 of neutralization, A204 cell-based reporter gene assay (activin A 5 ng/ml plus ActRIIB-Fc 50 ng/ml)",[3],~2.6 nM
same,koff,[13],0.0031 s⁻¹
same,kon,[13],2.6e+06 M⁻¹ s⁻¹
B5,residual GDF11 binding,[5],< 50 % of Emax
B6,Kd,[14],1.6 nM
same,residual GDF11 binding,[5],< 50 % of Emax
same,Kd,[6],9.9 nM
same,koff,[6],0.014 s⁻¹
same,kon,[6],1.4e+06 M⁻¹ s⁻¹
same,koff,[7],0.00019 s⁻¹
same,kon,[7],1.2e+06 M⁻¹ s⁻¹

# Source: patent US20130108650A1 (ACCELERON PHARMA, published 2013)
